Results on 97 sequences are retold here after the supplement of paper PMC6755084.

This data set concerns F1*sub RNA substrate (template-directed ligation). Description: fraction ligated after 30 min (ligated reads / total reads); higher = more ligase activity; sequences stand for … in GAGACCGCAACTGAAAAGTTGT…AGTTCTGCACGTAGAAGCAAAAGGC
The conditions noted are these: 42 °C. In short, it runs like this:
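Ligase ribozyme variants were made from oligo-pool templates by PCR amplification, T7 transcription and gel purification. After gel separation, ligated and unligated bands were reverse transcribed with barcoded primers and sequenced on a MiSeq, with core bases filtered at quality ≥20. The fraction ligated for each variant was the number of ligated reads divided by total reads.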
“TATCACTGTCGTAGAACTTTGGATGGGTTGA [3d1388]” displayed a fraction ligated of 0.886.

The sequence “TATCACTGTCGTAGACACTTGGATGGGTTGA [3d1391]” had a fraction ligated of 0.799. As to “TATCACTGTCGTAGACACTTTGATGGGTTGA [3d1392]”, the fraction ligated came to 0.787. In the case of “TATCACTGTCGTAGACACTTTGGAGGGTTGA [3d1394]” it was 0.13. Under “TATCACTGTCGTAGACACTTTGGATGGGTTA [3d1396]” stands 0.791; under “TATCACTGTCGTAGACACTTTGGATGGGTTG [3d1397]”, 0.811. In the case of “TATCACTGTCGTAGACACTTTGGATGGGTTGA [2d134]” it was 0.861; in that of “TATCACTGTCGTAGACACTTTGGATGGTTGA [3d1395]”, 0.409. “TATCACTGTCGTAGACACTTTGGTGGGTTGA [3d1393]” showed a fraction ligated of 0.499. In the case of “TATCACTGTCGTAGACATTTGGATGGGTTGA [3d1390]” it was 0.864; in that of “TATCACTGTCGTAGACCTTTGGATGGGTTGA [3d1389]”, 0.837; in that of “TATCACTGTCGTAGCACTTTGGATGGGTTGA [3d1387]”, 0.881. In turn, “TATCACTGTCGTGACACTTTGGATGGGTTGA [3d1385]” displayed a fraction ligated of 0.854. Under “TATCACTGTCTAAACACTTTGGATGGGTTGA [3d1360]” stands 0.816; under “TATCACTGTCTAAGAACTTTGGATGGGTTGA [3d1362]”, 0.849. In the case of “TATCACTGTCTAAGACACTTGGATGGGTTGA [3d1365]” it was 0.789; in that of “TATCACTGTCTAAGACACTTTGATGGGTTGA [3d1366]”, 0.77; in that of “TATCACTGTCTAAGACACTTTGGAGGGTTGA [3d1368]”, 0.102.

“TATCACTGTCTAAGACACTTTGGATGGGTTA [3d1370]” showed a fraction ligated of 0.762. In the case of “TATCACTGTCTAAGACACTTTGGATGGGTTG [3d1371]” it was 0.8; in that of “TATCACTGTCTAAGACACTTTGGATGGGTTGA [2d132]”, 0.818; in that of “TATCACTGTCTAAGACACTTTGGATGGTTGA [3d1369]”, 0.239.

In turn, “TATCACTGTCTAAGACACTTTGGTGGGTTGA [3d1367]” gave a fraction ligated of 0.34.

On to “TATCACTGTCTAAGACATTTGGATGGGTTGA [3d1364]”, for which the fraction ligated came to 0.803. Under “TATCACTGTCTAAGACCTTTGGATGGGTTGA [3d1363]” stands 0.795.

“TATCACTGTCTAAGCACTTTGGATGGGTTGA [3d1361]” came in with a fraction ligated of 0.771.

Take “TATCACTGTCTAGACACTTTGGATGGGTTGA [3d1359]”: the fraction ligated was 0.822. In the case of “TATCACTGTGAAGACACTTTGGATGGGTTGA [3d1344]” it was 0.863; in that of “TATCACTGTGTAAACACTTTGGATGGGTTGA [3d1346]”, 0.845; in that of “TATCACTGTGTAAGAACTTTGGATGGGTTGA [3d1348]”, 0.882. Take “TATCACTGTGTAAGACACTTGGATGGGTTGA [3d1351]”: the fraction ligated came to 0.821.

On to “TATCACTGTGTAAGACACTTTGATGGGTTGA [3d1352]”, for which the fraction ligated came to 0.355.

On to “TATCACTGTGTAAGACACTTTGGAGGGTTGA [3d1354]”, for which the fraction ligated was 0.0274. Under “TATCACTGTGTAAGACACTTTGGATGGGTTA [3d1356]” stands 0.823.

Regarding “TATCACTGTGTAAGACACTTTGGATGGGTTG [3d1357]”, the fraction ligated is 0.843. In turn, “TATCACTGTGTAAGACACTTTGGATGGGTTGA [2d131]” returned a fraction ligated of 0.887. Regarding “TATCACTGTGTAAGACACTTTGGATGGTTGA [3d1355]”, the fraction ligated came out at 0.216. In the case of “TATCACTGTGTAAGACACTTTGGTGGGTTGA [3d1353]” it was 0.0456. Regarding “TATCACTGTGTAAGACATTTGGATGGGTTGA [3d1350]”, the fraction ligated turned out to be 0.849. Under “TATCACTGTGTAAGACCTTTGGATGGGTTGA [3d1349]” stands 0.889; under “TATCACTGTGTAAGCACTTTGGATGGGTTGA [3d1347]”, 0.878. The sequence “TATCACTGTGTAGACACTTTGGATGGGTTGA [3d1345]” registered a fraction ligated of 0.886. In the case of “TATCACTGTTAAGACACTTTGGATGGGTTGA [3d1343]” it was 0.828. Under “TATCACTTCGAAGACACTTTGGATGGGTTGA [3d1313]” stands 0.803; under “TATCACTTCGTAAACACTTTGGATGGGTTGA [3d1315]”, 0.792; under “TATCACTTCGTAAGAACTTTGGATGGGTTGA [3d1317]”, 0.868. Under “TATCACTTCGTAAGACACTTGGATGGGTTGA [3d1320]” stands 0.796.

The sequence “TATCACTTCGTAAGACACTTTGATGGGTTGA [3d1321]” had a fraction ligated of 0.795.

Sequence “TATCACTTCGTAAGACACTTTGGAGGGTTGA [3d1323]” showed a fraction ligated of 0.0267. “TATCACTTCGTAAGACACTTTGGATGGGTTA [3d1325]” yielded a fraction ligated of 0.706.

Take “TATCACTTCGTAAGACACTTTGGATGGGTTG [3d1326]”: the fraction ligated turned out to be 0.795.

As to “TATCACTTCGTAAGACACTTTGGATGGGTTGA [2d129]”, the fraction ligated amounted to 0.825. “TATCACTTCGTAAGACACTTTGGATGGTTGA [3d1324]”: the fraction ligated is 0.122.

Regarding “TATCACTTCGTAAGACACTTTGGTGGGTTGA [3d1322]”, the fraction ligated was 0.085. In the case of “TATCACTTCGTAAGACATTTGGATGGGTTGA [3d1319]” it was 0.84; in that of “TATCACTTCGTAAGACCTTTGGATGGGTTGA [3d1318]”, 0.802.

“TATCACTTCGTAAGCACTTTGGATGGGTTGA [3d1316]” returned a fraction ligated of 0.797. Under “TATCACTTCGTAGACACTTTGGATGGGTTGA [3d1314]” stands 0.783; under “TATCACTTCTAAGACACTTTGGATGGGTTGA [3d1312]”, 0.774.

“TATCACTTGCAAGACACTTTGGATGGGTTGA [3d1599]” gave a fraction ligated of 0.798. With “TATCACTTGCGAAACACTTTGGATGGGTTGA [3d1614]”, the fraction ligated was 0.819. Under “TATCACTTGCGAAGAACTTTGGATGGGTTGA [3d1616]” stands 0.842; under “TATCACTTGCGAAGACACTTGGATGGGTTGA [3d1619]”, 0.785; under “TATCACTTGCGAAGACACTTTGATGGGTTGA [3d1620]”, 0.77. As for “TATCACTTGCGAAGACACTTTGGAGGGTTGA [3d1622]”, the fraction ligated was determined as 0.105. Sequence “TATCACTTGCGAAGACACTTTGGATGGGTTA [3d1624]” registered a fraction ligated of 0.733. In the case of “TATCACTTGCGAAGACACTTTGGATGGGTTG [3d1625]” it was 0.824; in that of “TATCACTTGCGAAGACACTTTGGATGGGTTGA [2d165]”, 0.835; in that of “TATCACTTGCGAAGACACTTTGGATGGTTGA [3d1623]”, 0.248. Take “TATCACTTGCGAAGACACTTTGGTGGGTTGA [3d1621]”: the fraction ligated came out at 0.0968.

“TATCACTTGCGAAGACATTTGGATGGGTTGA [3d1618]”: the fraction ligated came out at 0.814.

Take “TATCACTTGCGAAGACCTTTGGATGGGTTGA [3d1617]”: the fraction ligated is 0.779. As for “TATCACTTGCGAAGCACTTTGGATGGGTTGA [3d1615]”, the fraction ligated was 0.817. Under “TATCACTTGCGAGACACTTTGGATGGGTTGA [3d1613]” stands 0.821; under “TATCACTTGCGTAAAACTTTGGATGGGTTGA [3d1639]”, 0.858; under “TATCACTTGCGTAAACACTTGGATGGGTTGA [3d1642]”, 0.802. Under “TATCACTTGCGTAAACACTTTGATGGGTTGA [3d1643]” stands 0.768. Under “TATCACTTGCGTAAACACTTTGGAGGGTTGA [3d1645]” stands 0.0516. With “TATCACTTGCGTAAACACTTTGGATGGGTTA [3d1647]”, the fraction ligated is 0.777. In the case of “TATCACTTGCGTAAACACTTTGGATGGGTTG [3d1648]” it was 0.795.

“TATCACTTGCGTAAACACTTTGGATGGTTGA [3d1646]”: the fraction ligated worked out at 0.149. Under “TATCACTTGCGTAAACACTTTGGTGGGTTGA [3d1644]” stands 0.0539. In the case of “TATCACTTGCGTAAACATTTGGATGGGTTGA [3d1641]”, the fraction ligated came to 0.822. In the case of “TATCACTTGCGTAAACCTTTGGATGGGTTGA [3d1640]” it was 0.821; in that of “TATCACTTGCGTAACACTTTGGATGGGTTGA [3d1627]”, 0.786; in that of “TATCACTTGCGTAAGAACTTGGATGGGTTGA [3d1660]”, 0.827.

Consider “TATCACTTGCGTAAGAACTTTGATGGGTTGA [3d1661]”, for which the fraction ligated was determined as 0.853. As for “TATCACTTGCGTAAGAACTTTGGAGGGTTGA [3d1663]”, the fraction ligated was 0.0542. As to “TATCACTTGCGTAAGAACTTTGGATGGGTTA [3d1665]”, the fraction ligated is 0.604.

Consider “TATCACTTGCGTAAGAACTTTGGATGGGTTG [3d1666]”, for which the fraction ligated worked out at 0.833. The sequence “TATCACTTGCGTAAGAACTTTGGATGGTTGA [3d1664]” showed a fraction ligated of 0.0836. With “TATCACTTGCGTAAGAACTTTGGTGGGTTGA [3d1662]”, the fraction ligated stood at 0.0953. In the case of “TATCACTTGCGTAAGAATTTGGATGGGTTGA [3d1659]”, the fraction ligated was found to be 0.835. The sequence “TATCACTTGCGTAAGACACTGGATGGGTTGA [3d1681]” came in with a fraction ligated of 0.799.

“TATCACTTGCGTAAGACACTTGATGGGTTGA [3d1682]”: the fraction ligated stood at 0.747. Under “TATCACTTGCGTAAGACACTTGGAGGGTTGA [3d1684]” stands 0.0856; under “TATCACTTGCGTAAGACACTTGGATGGGTTA [3d1686]”, 0.558.
